First the molecules themselves.
B1: Ab10 scFv (scFv)
scFv: ELVMTQSPSSLSASVGDTVTITCRASQSIYTYLNWYHQTPGKAPKLLISAASSLQSGVPSRFSGSGSGTDFTLTISSLQPEDFATYYCQQYADVPVTFGGGTKLEIKGGSSRSSSSGGGGSGGGGEVQLVESGGGVVQPGRSLRLSCAASGFTFSGYGIHWVRQAPGKGLEWVALISYDGSNKYYADSVKGRFTISRDNSKNTLYLQMNSLRAEDTAVYYCAKDRDYFGSGFFDYWGQGTLVTVSS
B2: Ab8 scFv (scFv)
scFv: ELALTQPPSVSVAPAMTAKITCGGDDIGSTTVQWYQQTSGQAPVLVVYDDSDRPSGIPERFSGANSGNTATLTISRVEAGDEADYYCQVWDGRSDHVVFGGGTKLTVLGGGSSRSSSSGGGGSGGGGQVQLVQSGAEVKKPGESLKISCKGSGYIFTNYWIGWVRQMPGKGLEWMGIIYPGDSDTRYSPSFQGQVTISADRSISTANLQWSSLKASDTALYYCARLKLRGFSGGYGSGRRYFDYWGQGTLVTVSS
B3: Ab9 scFv (scFv)
scFv: ELELTQPPSVSGTPGKRVSMSCSGSRSNIGGNVVNWYQQLPGKAPKLFIYNNDQRPSGVPDRVSGSKSGTSVSVAISGLQPEDEADYYCAAWDDILNGVVFGGGTQLTVLGGGSSRSSSSGGGGSGGGGQVQLVQSGAEVKKPGESLKISCKGSGYNFTNYWIGWVRQLPGKGLEWMGIIYPGDSDTRYSPSFQGQVTISADKSISTAYLQWSSLKASDTAMYYCARIRVIGFYDSSPPPLFDYWGQGTLVTVSS

This assay has as its target T1, recombinant SFTS virus glycoprotein Gn fused to human Ig k-chain constant region (severe fever with thrombocytopenia …, UniProt P01834 1-107).
T1 construct: also called Gn-Ck
Nature of the assay: ELISA on recombinant glycoprotein (Gn-Ck coated, Example 5). (An ELISA detects its analyte on a solid surface through an enzyme-linked reagent.)
Take B1: the binding result is “binds”.

On to B2, for which the binding result is “binds”.

As to B3, the binding result is listed as “binds”.

The values above are taken from US20210171611A1 (SEOUL NATIONAL UNIVERSITY R AND DB FOUNDATION, published 2021).
